The results in this text go back to patent US20210079102A1 (DRAGONFLY THERAPEUTICS, published 2021).

Test [1] addresses T1, murine NKG2D overexpressed on EL4 cells (EL4-mNKG2D) (mouse, UniProt O54709 1-232).
T1 construct: whole, on cells; also called EL4-mNKG2D cells
T1 sequence (looked up): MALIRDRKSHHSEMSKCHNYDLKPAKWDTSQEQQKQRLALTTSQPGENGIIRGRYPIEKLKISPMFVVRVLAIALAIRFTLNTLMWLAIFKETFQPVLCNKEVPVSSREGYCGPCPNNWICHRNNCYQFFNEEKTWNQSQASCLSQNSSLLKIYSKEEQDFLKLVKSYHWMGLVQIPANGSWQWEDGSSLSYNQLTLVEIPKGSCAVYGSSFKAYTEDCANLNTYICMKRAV
Description: flow cytometry on EL4-mNKG2D cells, 60 ug/mL with four-fold dilutions, goat anti-mouse PE secondary. The protocol:
(§1) 60 μg/mL of indicated antibodies with four-fold dilutions were added to 2×10⁵ B16F10 tumor cells (FIG. 58A) or EL4-mNKG2D cells (FIG. 58B). Binding was assessed using a goat anti-mouse PE secondary antibody followed by flow cytometric analysis.
(In general: In flow cytometry, cells or beads pass a laser one at a time.)

Test [2] concerns the target T2, Tyrp-1 on B16F10 melanoma cells (UniProt P07147 25-537, limits assumed).
T2 construct: whole, on cells; also called Tyrp-1-positive B16F10 melanoma cells
Put plainly: flow cytometry on B16F10 tumor cells, 60 ug/mL with four-fold dilutions, goat anti-mouse PE secondary. The protocol:
as §1

Test [3] has as its target T3, CD33 expressed on MV4-11 human AML cells (human, UniProt P20138 18-364).
T3 construct: whole, on cells; also called cell-expressed CD33
Put plainly: flow cytometry on MV4-11 cells, FOB of MFI. The protocol:
Human AML cell line MV4-11 expressing CD33 was used to assay the binding of TriNKETs to the tumor associated antigen. TriNKETs and the parental anti-CD33 monoclonal antibody were incubated with the cells, and the binding was detected using fluorophore-conjugated anti-human IgG secondary antibodies. Cells were analyzed by flow cytometry, and fold-over-background (FOB) was calculated using the mean fluorescence intensity (MFI) from TriNKETs and the parental monoclonal anti-CD33 antibody normalized to secondary antibody controls.

For test [4], the target named is T4, human NKG2D expressed on EL4 cells (human, UniProt P26718 1-216).
T4 construct: whole, on cells; also called extracellular NKG2D expressed on EL4 cells; cell-expressed human NKG2D
T4 sequence (looked up): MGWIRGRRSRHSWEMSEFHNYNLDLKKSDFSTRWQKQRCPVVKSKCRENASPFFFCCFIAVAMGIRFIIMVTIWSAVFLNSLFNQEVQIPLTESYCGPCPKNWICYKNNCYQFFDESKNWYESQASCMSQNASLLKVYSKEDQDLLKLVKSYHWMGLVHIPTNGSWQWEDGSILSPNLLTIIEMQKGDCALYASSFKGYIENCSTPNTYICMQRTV
Put plainly: flow cytometry on EL4 cells expressing human NKG2D, anti-human IgG secondary, FOB of MFI. As for the experimental part:
EL4 mouse lymphoma cell lines were engineered to express human NKG2D. […] The binding of the multi-specific binding proteins to NKG2D was detected using fluorophore-conjugated anti-human IgG secondary antibodies. Cells were analyzed by flow cytometry, and fold-over-background (FOB) was calculated using the mean fluorescence intensity (MFI) of NKG2D-expressing cells compared to parental EL4 cells.

T3 sequence (P20138 18-364): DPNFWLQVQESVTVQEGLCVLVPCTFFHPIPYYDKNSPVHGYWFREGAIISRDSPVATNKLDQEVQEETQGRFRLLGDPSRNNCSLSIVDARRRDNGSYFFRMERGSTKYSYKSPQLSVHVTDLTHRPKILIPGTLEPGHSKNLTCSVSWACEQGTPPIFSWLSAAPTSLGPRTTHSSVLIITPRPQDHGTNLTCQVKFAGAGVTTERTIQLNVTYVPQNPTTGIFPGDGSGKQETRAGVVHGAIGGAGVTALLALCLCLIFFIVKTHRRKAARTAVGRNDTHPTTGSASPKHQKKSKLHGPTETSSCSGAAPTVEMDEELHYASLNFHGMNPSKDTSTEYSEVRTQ

B1: mcFAE-C26.99 TriNKET (bispecific antibody, mouse IgG2c)
light 1: DIQMTQSPSTLSASVGDRVTITCRASQSISSWLAWYQQKPGKAPKLLIYKASSLESGVPSRFSGSGSGTEFTLTISSLQPDDFATYYCQQYGSFPITFGGGTKVEIKRADAAPTVSIFPPSSEQLTSGGASVVCFLNNFYPKDINVKWKIDGSERQNGVLNSWTDQDSKDSTYSMSSTLTLTKDEYERHNSYTCEATHKTSTSPIVKSFNRNEC
heavy 1: QVQLQQWGAGLLKPSETLSLTCAVYGGSFSGYYWSWIRQPPGKGLEWIGEIDHSGSTNYNPSLKSRVTISVDTSKNQFSLKLSSVTAADTAVYYCARARGPWSFDPWGQGTLVTVSSAKTTAPSVYPLAPVCGGTTGSSVTLGCLVKGYFPEPVTLTWNSGSLSSGVHTFPALLQSGLYTLSSSVTVTSNTWPSQTITCNVAHPASSTKVDKKIEPRVPITQNPCPPLKECPPCAAPDLLGGPSVFIFPPKIKDVLMISLSPMVTCVVVDVSEDDPDVQISWFVNNVEVHTAQTQTHREDYNSTLRVVSALPIQHQDWMSGKEFKCKVNNRALPSPIEKTISKPRGPVRAPQVYVLPPPAEEMTKKEFSLTCMIKGFLPAEIAVDWTSNGRTEQNYKNTATVLDSDGSYFMYSRLRVQKSTWERGSLFACSVVHEGLHNHLTTKTISRSLGK
light 2: DIQMSQSPASLSASVGETVTITCRASGNIYNYLAWYQQKQGKSPHLLVYDAKTLADGVPSRFSGSGSGTQYSLKISSLQTEDSGNYYCQHFWSLPFTFGSGTKLEIKRADAAPTVSIFPPSSEQLTSGGASVVCFLNNFYPKDINVKWKIDGSERQNGVLNSWTDQDSKDSTYSMSSTLTLTKDEYERHNSYTCEATHKTSTSPIVKSFNRNEC
heavy 2: EVQLQQSGAELVRPGALVKLSCKTSGFNIKDYFLHWVRQRPDQGLEWIGWINPDNGNTVYDPKFQGTASLTADTSSNTVYLQLSGLTSEDTAVYFCTRRDYTYEKAALDYWGQGASVIVSSAKTTAPSVYPLAPVCGGTTGSSVTLGCLVKGYFPEPVTLTWNSGSLSSGVHTFPALLQSGLYTLSSSVTVTSNTWPSQTITCNVAHPASSTKVDKKIEPRVPITQNPCPPLKECPPCAAPDLLGGPSVFIFPPKIKDVLMISLSPMVTCVVVDVSEDDPDVQISWFVNNVEVHTAQTQTHREDYNSTLRVVSALPIQHQDWMSGKEFKCKVNNRALPSPIEKTISKPRGPVRAPQVYVLPPPAEEMTKKEFSLTCMITGFLPAEIAVDWTSNGRTEQNYKNTATVLDSDGSYLMYSKLTVQKSTWERGSLFACSVVHEGLHNHLTTKTISRSLGK
notes: also called murine cFAE-C26.99 TriNKET; TA99 TriNKET (mcFAE-C26.99)
With B1, the binding result in test [1] and in test [2] was “binds” throughout.

B2: CD33-TriNKET-C26 (ADI-28226 and a CD33-binding domain) (bispecific antibody, V domains shown)
VH 1: QVQLQQWGAGLLKPSETLSLTCAVYGGSFSGYYWSWIRQPPGKGLEWIGEIDHSGSTNYNPSLKSRVTISVDTSKNQFSLKLSSVTAADTAVYYCARARGPWSFDPWGQGTLVTVSS
VL 1: DIQMTQSPSTLSASVGDRVTITCRASQSISSWLAWYQQKPGKAPKLLIYKASSLESGVPSRFSGSGSGTEFTLTISSLQPDDFATYYCQQYGSFPITFGGGTKVEIK
VH 2: QVQLVQSGAEVKKPGASVKVSCKASGYTFTDYVVHWVRQAPGQGLEWMGYINPYNDGTKYNEKFKGRVTMTRDTSISTAYMELSRLRSDDTAVYYCARDYRYEVYGMDYWGQGTLVTVSS
VL 2: DIVLTQSPASLAVSPGQRATITCTASSSVNYIHWYQQKPGQPPKLLIYDTSKVASGVPARFSGSGSGTDFTLTINPVEANDTANYYCQQWRSYPLTFGQGTKLEIK
notes: also called C26-TriNKET-CD33
Turning to B2, the binding result in test [3] and in test [4] was “binds” throughout.

B3: parental anti-CD33 monoclonal antibody (antibody, V domains shown)
VH: QVQLVQSGAEVKKPGASVKVSCKASGYTFTDYVVHWVRQAPGQGLEWMGYINPYNDGTKYNEKFKGRVTMTRDTSISTAYMELSRLRSDDTAVYYCARDYRYEVYGMDYWGQGTLVTVSS
VL: DIVLTQSPASLAVSPGQRATITCTASSSVNYIHWYQQKPGQPPKLLIYDTSKVASGVPARFSGSGSGTDFTLTINPVEANDTANYYCQQWRSYPLTFGQGTKLEIK
notes: also called parental monoclonal anti-CD33 antibody; parental anti-CD33 antibody
As to B3, the binding result in test [3] is “binds”.
